Values of other authors in US20260256431A1, “IMAGING OF MATRIX METALLOPROTEINASE INHIBITORS” (Micro Vide, LLC, priority 2022, published 2026).

System: MMP-2, MMP-9, and MMP-14

B1: rTIMP-3: recombinant tissue inhibitor of metalloproteinases-3 (protein, UniProt P35625 24-211, looked up)
Metalloproteinase inhibitor 3: CTCSPSHPQDAFCNSDIVIRAKVVGKKLVKEGPFGTLVYTIKQMKMYRGFTKMPHVQYIHTEASESLCGLKLEVNKYQYLLTGRVYDGKMYTGLCNFVERWDQLTLSQRKGLNYRYHLGCNCKIKSCYYLPCFVTSKNECLWTDMLSNFGYPGYQSKHYACIRQKGGYCSWYRGWAPPDKSIINATDP
- MMP activity and LV remodeling and indices of heart failure progression (intracoronary delivery in pigs at the time of reperfusion, earlier study): favorably reduced
- tissue MMP-2, MMP-9, and MMP-14 activity (sustained release of rTIMP-3 from a hydrogel, observed previously): inhibition
